The text below walks through data of the RNAGym collection of RNA variant scans (doi:10.1073/pnas.2313332121).

B1: TPR 5TU (parent)
chain: GGAUCUUCUCGAUCUAACAAAAAAGACAAAUCUGCCACAAAGCUUGAGAGCAUCUUCGGAUGCAGAGGCGGCAGCCUUCGGUGGCGCGAUAGCGCCAACGUUCUCAACUAUGACACGCAAAACGCGUGCUCCGUUGAAUGGAGUUUAUCAUG

Fewer inactive variants are shown than the library holds.

In the data set the parent is B1. Nature of the data set: polymerase ribozyme fitness, log enrichment relative to wild type (log ratio); higher = more active; in vitro selection for triplet polymerase activity. The gist of the method: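 Libraries of mutants in each subunit of a heterodimeric triplet polymerase ribozyme were generated by PCR and transcribed. In triplicate, each went through one in vitro selection round: annealing with biotinylated primer, partner subunit and triplets; frozen incubation at −7 °C; gel excision of extended constructs; streptavidin-bead capture; RT-PCR. Fitness, taken from Illumina sequencing of input and output libraries, is the logarithm of a genotype's enrichment over wild-type enrichment, averaged across replicates with inverse-variance weights. The logarithm is base 2, and genotypes needed ≥10 input reads and ≥1 read per output to be kept.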
As for A22U A37U C95U U146A, the “polymerase ribozyme fitness (log ratio)” value was -1.67. Regarding A22U G71A, the “polymerase ribozyme fitness (log ratio)” value is -2.64. As for A22U C32U U55G U56C C75A G88U C105U A142U, the “polymerase ribozyme fitness (log ratio)” value is at most -4.2.

In the case of A23G U44A U56A, the “polymerase ribozyme fitness (log ratio)” value was at most -4.2. Regarding A22G C35U C93G A142C A150G, the “polymerase ribozyme fitness (log ratio)” value is at most -4.2. Next, A23C A40C G83U U102A U145A: at most -4.2; A21U U82C: 0.17. With A21U G84U, the “polymerase ribozyme fitness (log ratio)” value was -1.29. The same measure for A24C A49U C87A G92A G140U: at most -4.2; for A22U G83C G84A U101A C123A: -4.08.

Turning to A22U G58C C87U U135C, the “polymerase ribozyme fitness (log ratio)” value is -2.68. On to A21U G84A A89G, for which the “polymerase ribozyme fitness (log ratio)” value is -1.44. The same measure for A21U U44A C93G G94C: at most -4.2; for A21U G136U: -2.65; for A22U A26U: -2.88.

Regarding A21U C95U C99U, the “polymerase ribozyme fitness (log ratio)” value was -0.768. The same measure for A21U G50C G84U: -4.11; for A21U G50C C54U C63U G94A: -0.0103.

With A24C A28G U53A U134A, the “polymerase ribozyme fitness (log ratio)” value is at most -4.2. Next, A22U A49U G81U G86C G141C: -4.13; A22U A30G C85G U104A C105A U111G: at most -4.2; A21U U55A: -0.879. The same measure for A21U G62A: 0.138. The same measure for A24C G81U C87G U104G A110U: at most -4.2. As to A24G A91U, the “polymerase ribozyme fitness (log ratio)” value was at most -4.2. Next, A23G C85U: -2.38; A24C G58A G59A A147C: at most -4.2; A22C G92C U109C U148A: -4.16. The same measure for A22U G86U: -1.05; for A22U G50U C96A G136C A142G: at most -4.2; for A22C A23G C93G C149U: at most -4.2. The same measure for A24G U31C: -3.52; for A23G U56A A97G A115G: -3.42; for A21U G48C G83A C118G U145A: -2.76. Regarding A23C A60U G84U C105A, the “polymerase ribozyme fitness (log ratio)” value is at most -4.2. Next, A23G A52U C118A A122U: at most -4.2. The same measure for A24C A37C G59A C99G A107U: at most -4.2; for A21U G141A: 1.36. Regarding A22C A24U G50C G58A C93U G94U, the “polymerase ribozyme fitness (log ratio)” value is at most -4.2. Next, A24G A52C G68A U151G: at most -4.2; A22U G92C C93U A119G: -3.96. Next, A21U C87U C96U C131G: at most -4.2; A23G A47C: -2.96.

For the variant A23U C38U C114U G126A, the “polymerase ribozyme fitness (log ratio)” value is at most -4.2.

Take A22G G65A A97U: the “polymerase ribozyme fitness (log ratio)” value was -2.68. The same measure for A23C G34U C43U A60G C132U: -4.02. For the variant A23U A26U U33G A37C C72G C76A C95G U144C, the “polymerase ribozyme fitness (log ratio)” value is at most -4.2. On to A22U G94A, for which the “polymerase ribozyme fitness (log ratio)” value is -0.557. The same measure for A22U C95U C103G: -1.55; for A23C A30U G50A C54A C93G C95U G124A: at most -4.2. Next, A23U A29U C85A A115G G143C: at most -4.2; A22C C51A C93G A98C C116U U135C: at most -4.2.

As to A23U C87G A91G, the “polymerase ribozyme fitness (log ratio)” value is at most -4.2.

As to A23C A29G G81A G84U A122G G126A U135A, the “polymerase ribozyme fitness (log ratio)” value was at most -4.2. Next, A22C A121U: -0.324; A23G C51G U53A A60G G84A U104G C116U A121C: at most -4.2; A22C G42U A73U G81C A91U C96U A107G G143C: at most -4.2. In the case of A23C A40U C95U U134A U151A, the “polymerase ribozyme fitness (log ratio)” value is at most -4.2.

With A22U C36U U78C U146C, the “polymerase ribozyme fitness (log ratio)” value is -3.63. In the case of A22C C27U C54U C85G A91U G112A A119U A147C A150C, the “polymerase ribozyme fitness (log ratio)” value was at most -4.2.

For the variant A24G G92U A122G, the “polymerase ribozyme fitness (log ratio)” value is at most -4.2.

With A21U G34A G83C, the “polymerase ribozyme fitness (log ratio)” value was -2.46. Turning to A22U C99G C116U, the “polymerase ribozyme fitness (log ratio)” value was -0.689. A22C C27G C99U A106U G140U A147G: the “polymerase ribozyme fitness (log ratio)” value was at most -4.2. Turning to A24U A26C A29U A40U A52G G62U C85U, the “polymerase ribozyme fitness (log ratio)” value was at most -4.2. The same measure for A22C C32U C85G C95A G100A G112C: at most -4.2; for A21U U61A G88A: at most -4.2. As to A22U C27G C57G U61A C95U U104G U145G, the “polymerase ribozyme fitness (log ratio)” value is at most -4.2.

Consider A22C A28U G62A G65C U90A C99U C108U C116G, for which the “polymerase ribozyme fitness (log ratio)” value was at most -4.2. Next, A22C C35G U44A A60G C76A C95U G128A A150C U151G: at most -4.2; A22U A39U U44G C51A G141C U146C A150G: at most -4.2; A24C C43U C93G G141U: at most -4.2.

A22C G48U A60G: the “polymerase ribozyme fitness (log ratio)” value came out at 0.164. The same measure for A22U C96U C118U: -0.15; for A22C G92C C114U A150C: at most -4.2; for A23G G83A G94A C125U A147C: at most -4.2.

Consider A22U A89U, for which the “polymerase ribozyme fitness (log ratio)” value worked out at 0.229. Next, A22U A41C A52U G124U: -2.3; A22U U56A: -0.239; A23C A26U U53A C85A G136U: at most -4.2. Next, A23U A28G U55A G59A U78G G128A: -3.79.

As for A23U C27G A37U C95G A110G G140C, the “polymerase ribozyme fitness (log ratio)” value was -3.86.

On to A21U C93A, for which the “polymerase ribozyme fitness (log ratio)” value is -1.74. Next, A23G G86A G100A: at most -4.2.
